# In paper doi:10.1101/2022.06.26.497666 (bioRxiv, 2022):
# T1: NLRP1 (wild-type full-length human NLRP1) (human, UniProt Q9C000-1)
# T1 sequence: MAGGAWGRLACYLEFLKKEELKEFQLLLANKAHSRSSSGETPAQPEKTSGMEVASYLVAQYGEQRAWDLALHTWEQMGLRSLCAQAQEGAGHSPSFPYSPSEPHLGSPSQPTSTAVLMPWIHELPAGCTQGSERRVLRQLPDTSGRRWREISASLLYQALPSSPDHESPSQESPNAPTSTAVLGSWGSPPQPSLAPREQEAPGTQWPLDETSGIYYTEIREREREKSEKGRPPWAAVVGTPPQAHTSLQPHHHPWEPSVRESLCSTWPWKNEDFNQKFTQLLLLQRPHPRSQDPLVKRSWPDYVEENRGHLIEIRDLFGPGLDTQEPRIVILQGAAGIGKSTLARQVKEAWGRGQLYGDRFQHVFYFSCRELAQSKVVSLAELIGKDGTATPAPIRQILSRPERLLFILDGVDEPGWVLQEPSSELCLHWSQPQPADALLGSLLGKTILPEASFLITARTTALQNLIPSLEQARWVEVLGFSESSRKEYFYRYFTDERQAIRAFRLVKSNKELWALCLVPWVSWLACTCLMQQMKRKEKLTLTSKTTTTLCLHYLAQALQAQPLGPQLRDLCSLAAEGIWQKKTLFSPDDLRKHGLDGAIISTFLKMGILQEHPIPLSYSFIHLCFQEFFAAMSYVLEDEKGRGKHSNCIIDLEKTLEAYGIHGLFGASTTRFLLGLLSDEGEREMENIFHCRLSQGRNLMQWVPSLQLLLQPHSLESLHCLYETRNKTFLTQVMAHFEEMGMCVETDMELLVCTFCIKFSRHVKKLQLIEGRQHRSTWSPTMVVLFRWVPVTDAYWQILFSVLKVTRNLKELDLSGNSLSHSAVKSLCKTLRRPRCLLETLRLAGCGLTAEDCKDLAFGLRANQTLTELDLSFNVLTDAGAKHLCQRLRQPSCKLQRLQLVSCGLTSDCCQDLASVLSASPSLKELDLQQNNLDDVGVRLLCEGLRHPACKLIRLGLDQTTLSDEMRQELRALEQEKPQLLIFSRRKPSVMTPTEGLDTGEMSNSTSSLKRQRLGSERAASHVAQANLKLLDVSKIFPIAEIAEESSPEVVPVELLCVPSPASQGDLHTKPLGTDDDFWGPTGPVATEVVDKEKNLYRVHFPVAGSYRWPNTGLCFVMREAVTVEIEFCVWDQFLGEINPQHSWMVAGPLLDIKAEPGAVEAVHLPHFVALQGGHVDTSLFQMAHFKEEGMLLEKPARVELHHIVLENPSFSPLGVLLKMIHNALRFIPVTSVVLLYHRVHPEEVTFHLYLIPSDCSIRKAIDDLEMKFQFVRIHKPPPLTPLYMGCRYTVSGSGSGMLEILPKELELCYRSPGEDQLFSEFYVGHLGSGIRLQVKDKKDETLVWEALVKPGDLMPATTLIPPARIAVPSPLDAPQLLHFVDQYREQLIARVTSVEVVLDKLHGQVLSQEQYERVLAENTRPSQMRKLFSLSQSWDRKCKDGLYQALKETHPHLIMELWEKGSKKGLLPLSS
# Columns and labels:
# [1] = target: the molecule itself; assay: SEC + other: negative-stain EM
# [2] = target: T1, NLRP1 (wild-type full-length human …); assay: co-IP
binder,measurement,setting,value
MBP-NLRP1 NACHT-LRR F787_R843del mutant (domain or fragment) GRPPWAAVVGTPPQAHTSLQPHHHPWEPSVRESLCSTWPWKNEDFNQKFTQLLLLQRPHPRSQDPLVKRSWPDYVEENRGHLIEIRDLFGPGLDTQEPRIVILQGAAGIGKSTLARQVKEAWGRGQLYGDRFQHVFYFSCRELAQSKVVSLAELIGKDGTATPAPIRQILSRPERLLFILDGVDEPGWVLQEPSSELCLHWSQPQPADALLGSLLGKTILPEASFLITARTTALQNLIPSLEQARWVEVLGFSESSRKEYFYRYFTDERQAIRAFRLVKSNKELWALCLVPWVSWLACTCLMQQMKRKEKLTLTSKTTTTLCLHYLAQALQAQPLGPQLRDLCSLAAEGIWQKKTLFSPDDLRKHGLDGAIISTFLKMGILQEHPIPLSYSFIHLCFQEFFAAMSYVLEDEKGRGKHSNCIIDLEKTLEAYGIHGLFGASTTRFLLGLLSDEGEREMENIFHCRLSQGRNLMQWVPSLQLLLQPHSLESLHCLYETRNKTFLTQVMAHFEEMGMCVETDMELLVCTFCIKFSRHVKKLQLIEGRQHRSTWSPTMVVLLAGCGLTAEDCKDLAFGLRANQTLTELDLSFNVLTDAGAKHLCQRLRQPSCKLQRLQLVSCGLTSDCCQDLASVLSASPSLKELDLQQNNLDDVGVRLLCEGLRHPACKLIRLGLDQTTLSDEMRQELRALEQEKPQLLIFSRRKPSVMTP,binding result,[1],binds
MBP-NLRP1 NACHT-LRR R726W mutant (domain or fragment) GRPPWAAVVGTPPQAHTSLQPHHHPWEPSVRESLCSTWPWKNEDFNQKFTQLLLLQRPHPRSQDPLVKRSWPDYVEENRGHLIEIRDLFGPGLDTQEPRIVILQGAAGIGKSTLARQVKEAWGRGQLYGDRFQHVFYFSCRELAQSKVVSLAELIGKDGTATPAPIRQILSRPERLLFILDGVDEPGWVLQEPSSELCLHWSQPQPADALLGSLLGKTILPEASFLITARTTALQNLIPSLEQARWVEVLGFSESSRKEYFYRYFTDERQAIRAFRLVKSNKELWALCLVPWVSWLACTCLMQQMKRKEKLTLTSKTTTTLCLHYLAQALQAQPLGPQLRDLCSLAAEGIWQKKTLFSPDDLRKHGLDGAIISTFLKMGILQEHPIPLSYSFIHLCFQEFFAAMSYVLEDEKGRGKHSNCIIDLEKTLEAYGIHGLFGASTTRFLLGLLSDEGEREMENIFHCRLSQGRNLMQWVPSLQLLLQPHSLESLHCLYETWNKTFLTQVMAHFEEMGMCVETDMELLVCTFCIKFSRHVKKLQLIEGRQHRSTWSPTMVVLFRWVPVTDAYWQILFSVLKVTRNLKELDLSGNSLSHSAVKSLCKTLRRPRCLLETLRLAGCGLTAEDCKDLAFGLRANQTLTELDLSFNVLTDAGAKHLCQRLRQPSCKLQRLQLVSCGLTSDCCQDLASVLSASPSLKELDLQQNNLDDVGVRLLCEGLRHPACKLIRLGLDQTTLSDEMRQELRALEQEKPQLLIFSRRKPSVMTP,binding result,[1],binds
CARD8-T60 isoform (full-length) (natural protein) MEKKECPEKSSSSEEELPRRDSGSSRNIDASKLIRLQGSRKLLVDNSIRELQYTKTGIFFQAEACVTNDTVYRELPCVSETLCDISHFFQEDDETEAEPLLFRAVPECQLSGGDIPSVSEEQESSEGQDSGDICSEENQIVSSYASKVCFEIEEDYKNRQFLGPEGNVDVELIDKSTNRYSVWFPTAGWYLWSATGLGFLVRDEVTVTIAFGSWSQHLALDLQHHEQWLVGGPLFDVTAEPEEAVAEIHLPHFISLQAGEVDVSWFLVAHFKNEGMVLEHPARVEPFYAVLESPSFSLMGILLRIASGTRLSIPITSNTLIYYHPHPEDIKFHLYLVPSDALLTKAIDDEEDRFHGVRLQTSPPMEPLNFGSSYIVSNSANLKVMPKELKLSYRSPGEIQHFSKFYAGQMKEPIQLEITEKRHGTLVWDTEVKPVDLQLVAASAPPPFSGAAFVKENHRQLQARMGDLKGVLDDLQDNEVLTENEKELVEQEKTRQSKNEALLSMVEKKGDLALDVLFRSISERDPYLVSYLRQQNL,binding result,[2],binds
